{
  "source": "paper PMC7994445",
  "about": "“The actomyosin interface contains an evolutionary conserved core and an ancillary interface involved in specificity” (Nature Communications, 2021)",
  "key": {"[1]": {"target": "T1, PfMyoA motor domain (amino acids 1-K768) with a T417D mutation (Plasmodium falciparum, UniProt Q8IDR3 1-768, T417D)", "T1 construct": "Plasmodium falciparum myosin A (PfMyoA) heavy chain, motor domain, amino acids 1-K768, with the phosphomimetic mutation T417D (TEDS site, HCM loop); Residue K768 is followed by a Gly-Ser linker and the C-terminal FLAG tag; Nucleotide-free (Rigor) in the structure; also called PfMD; PfMyoA motor-domain construct with a T417D mutation", "T1 sequence": "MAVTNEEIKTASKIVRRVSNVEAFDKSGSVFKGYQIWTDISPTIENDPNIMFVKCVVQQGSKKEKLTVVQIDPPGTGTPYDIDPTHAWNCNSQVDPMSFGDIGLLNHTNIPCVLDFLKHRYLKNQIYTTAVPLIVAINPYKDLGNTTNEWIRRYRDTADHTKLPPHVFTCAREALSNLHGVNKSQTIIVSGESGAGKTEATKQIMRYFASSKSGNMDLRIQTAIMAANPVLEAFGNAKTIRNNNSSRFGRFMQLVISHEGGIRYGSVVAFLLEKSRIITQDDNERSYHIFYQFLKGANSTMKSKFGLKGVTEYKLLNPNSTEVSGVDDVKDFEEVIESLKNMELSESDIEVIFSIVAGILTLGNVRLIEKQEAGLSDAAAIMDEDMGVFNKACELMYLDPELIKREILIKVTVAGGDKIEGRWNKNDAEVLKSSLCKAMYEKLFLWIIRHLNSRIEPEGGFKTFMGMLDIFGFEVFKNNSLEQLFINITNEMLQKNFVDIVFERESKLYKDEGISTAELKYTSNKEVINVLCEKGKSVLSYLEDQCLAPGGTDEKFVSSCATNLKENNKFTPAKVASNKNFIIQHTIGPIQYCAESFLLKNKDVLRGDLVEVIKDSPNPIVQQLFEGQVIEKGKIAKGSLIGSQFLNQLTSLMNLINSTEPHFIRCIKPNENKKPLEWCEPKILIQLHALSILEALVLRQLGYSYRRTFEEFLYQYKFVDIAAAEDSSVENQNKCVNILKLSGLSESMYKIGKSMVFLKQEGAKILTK", "assay": "cryo-EM structure; PfMyoA motor domain T417D incubated in solution with JAS-stabilized PfAct1 filaments, vitrified within 15 min; nucleotide-free (Rigor) state; helical reconstruction at 3.8 Å", "details": "both partners purified"}, "[2]": {"target": "the molecule itself", "assay": "cryo-EM structure; PfMyoA motor domain T417D incubated in solution with JAS-stabilized PfAct1 filaments, vitrified within 15 min; nucleotide-free (Rigor) state; helical reconstruction at 3.8 Å"}},
  "data": [
    {"binder": "PfActin-1 filaments (natural protein, Plasmodium falciparum actin-1; ends at the final native Phe after chymotrypsin cleavage; Filamentous; unstabilised filaments were used in one motility condition; also called PfAct1; P. falciparum actin 1; not shown: His6, C-terminal, cleaved) not shown", "values": [
      {"measurement": "binding result", "setting": "[1]", "result": "binds"},
      {"measurement": "binding result", "setting": "[2]", "result": "binds"}
    ]}
  ]
}
